Laboratory results: publication PMC7611325 (Molecular cell, 2021)

Biological target: PAF1c (Polymerase II associated factor 1 complex; CTR9, Leo1, Paf1, CDC73, WDR61) (UniProt Q6PD62;Q8WVC0;Q8N7H5;Q6P1J9;Q9GZS3)
Assay: pull-down

binding result: binds
B1: GST-MYC^1-163 (glutathione-S-transferase fusion protein that encompasses amino acids 1 to 163 of human MYC) (domain or fragment)
chain: MPLNVSFTNRNYDLDYDSVQPYFYCDEEENFYQQQQQSELQPPAPSEDIWKKFELLPTPPLSPSRRSGLCSPSYVAVTPFSLRGDNDGGGGSFSTADQLEMVTELLGGDMVNQSFICDPDDETFIKNIIIQDCMWSGFSAAAKLVSEKLASYQAARKDSGSPN
